The values that follow come from patent US20240166729A1.

Where two headings read alike, the source gives them in different places.

Experiment [1] deals with Peptide #49 + 50 (enteropathogenic E. coli (EPEC)).
Experiment [2] deals with Peptide #49 (enteropathogenic E. coli (EPEC)).
The target in experiment [3] is Peptide #50 (enteropathogenic E. coli (EPEC)).
Experiment [4] has as its target mAb-EspB-B7.
Experiment [5] addresses mAb-EspB-B7. This is another data set of the same source.

B1: mAb-EspB-B7 (antibody, V domains shown)
VH: EVQLLESGGGLVQPGGSLRLSCAASGFTFSHYAMNWVRQAPGKGLEWVSAINSNGDSTYYPDTVKDRFTISRDNSKNTLYLQMNSLRAEDTAVYYCARDRRAGYFDYWGQGTLVTVSS
VL: DIVLTQPPSASGTPGQRVTISCSGSRDNIGKNYVSWYQQLPGTAPKLLIYRNNQRPSGVPDRFSGSKSGTSASLAISGLRSEDEADYYCSAWDTSLNAYVFGPGTQLTVL
Turning to B1, the 50% effective concentration (EC50 (read off the curve)) in experiment [1] was found to be 0.3 µg/mL; in experiment [2] it was 0.5 µg/mL; in experiment [3], 0.4 µg/mL.
CTSAQKASQVAEEAADAAQEC (modifications not checked) [Peptide #49 + 50] returned an IC50 (read off the curve) with mAb-EspB-B7 [4] of 2 µg/mL.
CTSAQKASQVAEEAADC (modifications not checked) [Peptide #49] registered an IC50 (read off the curve) in the experiment with mAb-EspB-B7 [5] of 0.8 µg/mL.

For orientation: EC50 (read off the curve) means the concentration at which the effect is half-maximal.
